The values that follow come from patent US20120253017A1 (published 2012).

The labels stand for the following.
T1: Mouse cKIT ECD-H6 (mouse, UniProt P05532 25-527)
T1 construct: extracellular domain; also called mouse c-kit (His tagged)
T1 sequence (looked up): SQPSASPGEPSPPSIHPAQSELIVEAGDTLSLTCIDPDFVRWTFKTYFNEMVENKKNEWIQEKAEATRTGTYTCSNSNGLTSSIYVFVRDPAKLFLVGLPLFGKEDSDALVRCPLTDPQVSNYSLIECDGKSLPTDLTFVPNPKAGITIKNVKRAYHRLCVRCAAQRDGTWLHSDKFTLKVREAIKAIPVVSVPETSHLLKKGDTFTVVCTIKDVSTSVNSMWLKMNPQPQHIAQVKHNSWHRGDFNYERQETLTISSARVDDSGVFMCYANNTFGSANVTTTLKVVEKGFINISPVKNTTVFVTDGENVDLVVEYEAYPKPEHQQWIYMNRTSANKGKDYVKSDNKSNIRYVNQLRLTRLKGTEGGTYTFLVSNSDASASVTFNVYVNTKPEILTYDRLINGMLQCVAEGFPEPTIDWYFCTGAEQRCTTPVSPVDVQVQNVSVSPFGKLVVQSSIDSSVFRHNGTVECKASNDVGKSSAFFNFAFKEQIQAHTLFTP

B1: DOM28m-73 (other)
chain: EVQLLESGGGLVQPGGSLRLSCAASGFTFKHYSMNWVRQAPGKGLEWVSRISPSGVSTYYADSVKGRFTISRDNSKNTLYLQMNSLRAEDTAVYYCAKIMNSHKADEFDYWGQGTLVTVSS
notes: dAb, C-terminal FLAG tag (pDOM10)
B2: Cyno cKIT ECD-H6 (receptor)
chain: SQPSVSPGEPSPPSIHPAKSELIVRVGNEIRLLCIDPGFVKWTFEILDETNENKQNEWITEKAEATNTGKYTCTNKHGLSSSIYVFVRDPAKLFLVDRSLYGKEDNDTLVRCPLTDPEVTSYSLKGCQGKPLPKDLRFVPDPKAGITIKSVKRAYHRLCLHCSADQEGKSVLSDKFILKVRPAFKAVPVVSVSKASYLLREGEEFTVTCTIKDVSSSVYSTWKRENSQTKLQEKYNSWHHGDFNYERQATLTISSARVNDSGVFMCYANNTFGSANVTTTLEVVDKGFINIFPMINTTVFVNDGENVDLIVEYEAFPKPEHQQWIYMNRTFTDKWEDYPKSENESNIRYVSELHLTRLKGTEGGTYTFLVSNSDVNASIAFNVYVNTKPEILTYDRLVNGMLQCVAAGFPEPTIDWYFCPGTEQRCSASVLPVDVQTLNASGPPFGKLVVQSSIDSSAFKHNGTVECKAYNDVGKTSAYFNFAFKGNNKEQIHPHTLFTP
B3: mouse Stem Cell Factor, 6xHIS tag (ligand, UniProt P20826 26-190, looked up)
chain: KEICGNPVTDNVKDITKLVANLPNDYMITLNYVAGMDVLPSHCWLRDMVIQLSLSLTTLLDKFSNISEGLSNYSIIDKLGKIVDDLVLCMEENAPKNIKESPKRPETRSFTPEEFFSIFNRSIDAFKDFMVASDTSDCVLSSTLGPEKDSRVSVTKPFMLPPVAA
notes: also called mSCF; murine SCF

Assay [1] has as its target T2, human c-kit on HEL-92.1.7 and KU812 cells (human, UniProt P10721 26-976).
T2 construct: whole, on cells
Nature of the assay: flow cytometry, HEL-92.1.7 cells (also YES on c-kit negative Jurkat). Background: Flow cytometry measures light scatter and fluorescence of single cells or particles in a stream.

Assay [2] addresses T3, human c-kit (recombinant, on BIAcore chip or beads) (human, UniProt P10721 26-524).
T3 construct: extracellular domain; also called hcKIT; biotinylated human c-kit
Nature of the assay: BIAcore 2000.

For assay [3], the target named is T4, human Stem Cell Factor, 6xHIS tag (human, UniProt P21583 26-190, limits assumed).
T4 construct: also called hSCF; human SCF
Briefly: BIAcore, SCF on CM5 chip. The procedure: (§1) Human and murine SCF were covalently attached to a CM5 BIAcore chip (GE Healthcare) in the presence of acetate pH 4 for both antigens. cKIT from various species were diluted to 1 μM in HBS-EP buffer (GE Healthcare) and run on the BIAcore in a 2-fold serial dilution to 1 nM.
(§2) Anti-human and anti-mouse SCF monoclonal antibodies (mAb) were used as controls (R&D systems).

For assay [4], the target named is B3. Briefly: BIAcore, SCF on CM5 chip. The procedure:
as §1, §2
(In general: Surface plasmon resonance follows binding to a sensor surface in real time, without labels.)

The target in another assay is T5, Human cKIT ECD-Fc (human, UniProt P10721 26-524).
T5 construct: extracellular domain; also called hcKIT; human c-KIT ECD-hIgG1 Fc fusion; not shown: human IgG1 Fc (pDOM38)
T5 sequence (P10721 26-524): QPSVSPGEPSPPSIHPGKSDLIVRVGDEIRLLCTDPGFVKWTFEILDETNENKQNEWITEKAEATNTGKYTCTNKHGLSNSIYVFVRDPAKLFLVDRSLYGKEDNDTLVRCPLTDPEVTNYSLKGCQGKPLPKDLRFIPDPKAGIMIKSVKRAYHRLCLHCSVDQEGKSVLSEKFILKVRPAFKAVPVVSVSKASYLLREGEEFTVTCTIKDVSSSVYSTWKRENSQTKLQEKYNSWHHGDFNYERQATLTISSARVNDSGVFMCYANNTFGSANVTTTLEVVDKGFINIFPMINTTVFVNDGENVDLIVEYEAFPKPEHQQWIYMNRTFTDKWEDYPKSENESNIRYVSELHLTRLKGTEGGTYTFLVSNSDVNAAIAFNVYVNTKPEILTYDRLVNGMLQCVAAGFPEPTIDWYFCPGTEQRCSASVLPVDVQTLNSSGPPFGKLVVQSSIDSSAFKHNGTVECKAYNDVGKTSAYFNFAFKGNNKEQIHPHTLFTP
Nature of the assay: BIAcore, SCF on CM5 chip. As for the experimental part:
as §1, §2

For a further assay, the target named is T1, Mouse cKIT ECD-H6. Nature of the assay: BIAcore, SCF on CM5 chip. As for the experimental part: as §1, §2

T2 sequence (P10721 26-976): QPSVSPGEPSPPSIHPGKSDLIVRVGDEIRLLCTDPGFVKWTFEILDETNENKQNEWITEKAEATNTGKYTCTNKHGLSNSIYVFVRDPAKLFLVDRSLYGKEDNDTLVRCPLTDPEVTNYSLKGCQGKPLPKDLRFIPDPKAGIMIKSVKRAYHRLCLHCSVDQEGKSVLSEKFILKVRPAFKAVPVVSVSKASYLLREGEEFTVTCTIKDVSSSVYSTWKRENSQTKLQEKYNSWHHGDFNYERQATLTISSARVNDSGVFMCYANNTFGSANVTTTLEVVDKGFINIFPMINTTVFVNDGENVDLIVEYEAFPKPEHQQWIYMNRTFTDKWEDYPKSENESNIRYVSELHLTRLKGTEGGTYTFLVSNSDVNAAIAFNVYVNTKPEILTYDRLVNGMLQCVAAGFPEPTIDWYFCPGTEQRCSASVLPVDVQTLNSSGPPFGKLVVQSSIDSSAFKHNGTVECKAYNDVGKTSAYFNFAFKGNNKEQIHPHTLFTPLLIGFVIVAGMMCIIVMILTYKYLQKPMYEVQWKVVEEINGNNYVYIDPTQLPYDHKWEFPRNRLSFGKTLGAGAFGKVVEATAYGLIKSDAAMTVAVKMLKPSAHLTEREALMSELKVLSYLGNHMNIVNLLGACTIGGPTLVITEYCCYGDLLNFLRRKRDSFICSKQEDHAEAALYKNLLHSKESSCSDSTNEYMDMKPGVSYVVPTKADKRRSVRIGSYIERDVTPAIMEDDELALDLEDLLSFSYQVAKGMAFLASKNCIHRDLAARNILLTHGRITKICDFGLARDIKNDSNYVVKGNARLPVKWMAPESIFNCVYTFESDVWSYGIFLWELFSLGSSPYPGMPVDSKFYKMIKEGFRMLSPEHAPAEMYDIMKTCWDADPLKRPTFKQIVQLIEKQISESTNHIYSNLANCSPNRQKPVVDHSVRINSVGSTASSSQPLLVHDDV

Take B1: the binding result in assay [1] is “binds”; in assay [2], “no binding (tested: 1 uM)”.

The Kd is the equilibrium constant for the complex coming apart. Low values mean a tighter complex, high ones a looser complex. As to B2, the Kd was determined as 369 nM in assay [3] and 867 nM in assay [4].

Turning to B3, binding with Human cKIT ECD-Fc was put at a Kd of 17.7 nM. For the same molecule, the binding result with Mouse cKIT ECD-H6 is recorded as “no binding (tested: 1 µM)”.
